These results are taken from patent publication JP2017222678A (dated 2017).

By EC50 is commonly meant the concentration needed to bring the measured effect to its halfway point.

The chains are these.
T1: ヒトTFPI (human tissue factor pathway inhibitor; American Diagnostica) (human, UniProt P10646 29-304, limits assumed)
T1 construct: Coated on plates (ELISA) or amine-coupled to a CM5 chip (Biacore); also called h-TFPI; hTFPI
T1 sequence (looked up): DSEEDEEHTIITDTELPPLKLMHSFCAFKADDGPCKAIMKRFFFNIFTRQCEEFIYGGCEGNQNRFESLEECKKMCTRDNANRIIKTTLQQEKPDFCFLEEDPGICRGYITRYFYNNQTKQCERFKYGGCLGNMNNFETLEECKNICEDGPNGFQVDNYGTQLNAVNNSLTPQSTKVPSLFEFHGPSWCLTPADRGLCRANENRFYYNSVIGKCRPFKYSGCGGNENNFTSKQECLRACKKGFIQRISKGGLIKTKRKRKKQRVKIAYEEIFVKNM

T2: マウスTFPI (mouse TFPI; R&D System) (mouse, UniProt O54819 29-289, limits assumed)
T2 construct: also called m-TFPI; mTFPI
T2 sequence (looked up): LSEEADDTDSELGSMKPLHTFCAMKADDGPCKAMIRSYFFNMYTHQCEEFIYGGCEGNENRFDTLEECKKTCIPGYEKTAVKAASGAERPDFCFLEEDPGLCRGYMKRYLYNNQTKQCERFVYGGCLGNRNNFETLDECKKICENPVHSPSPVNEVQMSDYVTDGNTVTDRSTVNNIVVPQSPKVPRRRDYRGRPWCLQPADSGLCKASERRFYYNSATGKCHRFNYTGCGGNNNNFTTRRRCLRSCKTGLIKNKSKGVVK

B1: TP-2G6 (Fab, V domains shown)
VH: QVQLQQSGPGLVKPSQTLSLTCAISGDSVSSSSAAWSWIRQSPGRGLEWLGIIYYRSKWYNDYAVSVKSRITINPDTSKNQFSLQLNSVTPEDTAVYYCARHSMVGFDVWGQGTLVTVSS
VL: DIVLTQSPATLSLSPGERATLSCRASQYVTSSYLAWYQQKPGQAPRLLIYGSSRATGVPARFSGSGSGTDFTLTISSLEPEDFATYYCQQYSSSPITFGQGTKVEIKR
notes: HuCAL Gold human Fab from E. coli TG1; also called 2G6-Fab
B2: 2G6-IgG (antibody, V domains shown)
VH: B1 VH
VL: B1 VL
notes: also called IgG-2G6; TP-2G6 after conversion to IgG
B3: TP-4B7 (Fab, V domains shown)
VH: QVQLQQSGPGLVKPSQTLSLTCAISGDSVSSNSAAWSWIRQSPGRGLEWLGIIYKRSKWYNDYAVSVKSRITINPDTSKNQFSLQLNSVTPEDTAVYYCARWHSDKHWGFDYWGQGTLVTVSS
VL: DIVMTQSPLSLPVTPGEPASISCRSSQSLVFSDGNTYLNWYLQKPGQSPQLLIYKGSNRASGVPDRFSGSGSGTDFTLKISRVEAEDVGVYYCQQYDSYPLTFGQGTKVEIKR
notes: HuCAL Gold human Fab from E. coli TG1
B4: TP-2B3 (Fab, V domains shown)
VH: QVQLQQSGPGLVKPSQTLSLTCAISGDSVSSNSAAWGWIRQSPGRGLEWLGMIYYRSKWYNSYAVSVKSRITINPDTSKNQFSLQLNSVTPEDTAVYYCARTMSKYGGPGMDVWGQGTLVTVSS
VL: DIVLTQSPATLSLSPGERATLSCRASQNIGSNYLAWYQQKPGQAPRLLIYGASTRATGVPARFNGSGSGTDFTLTISSLEPEDFAVYYCQQLNSIPVTFGQGTKVEIKR
notes: as for B3
B5: TP-2B1 (Fab, V domains shown)
VH: QVQLVESGGGLVQPGGSLRLSCAASGFTFSSYSMSWVRQASGKGLEWVSSIKGSGSNTYYADSVKGRFTISRDNSKNTLYLQMNSLRAEDTAVYYCARNGGLIDVWGQGTLVTVSS
VL: DIELTQPPSVSVAPGQTARISCSGDNLGNKYAHWYQQKPGQAPVLVIYYDNKRPSGIPERFSGSNSGNTATLTISGTQAEDEADYYCQSWTPGSNTMVFGGGTRLTVLG
notes: as for B3
B6: TP-2A8 (Fab, V domains shown)
VH: QVQLVESGGGLVQPGGSLRLSCAASGFTFRSYGMSWVRQAPGKGLEWVSSIRGSSSSTYYADSVKGRFTISRDNSKNTLYLQMNSLRAEDTAVYYCARKYRYWFDYWGQGTLVTVSS
VL: DIELTQPPSVSVAPGQTARISCSGDNLRNYYAHWYQQKPGQAPVVVIYYDNNRPSGIPERFSGSNSGNTATLTISGTQAEDEADYYCQSWDDGVPVFGGGTKLTVLG
notes: HuCAL Gold human Fab from E. coli TG1; also called Fab-2A8; TP-2A8-Fab
B7: TP-3G1 (Fab, V domains shown)
VH: QVQLQQSGPGLVKPSQTLSLTCAISGDSVSSNSGGWGWIRQSPGRGLEWLGLIYYRSKWYNAYAVSVKSRITINPDTSKNQFSLQLNSVTPEDTAVYYCARYLGSNFYVYSDVWGQGTLVTVSS
VL: DIQMTQSPSSLSASVGDRVTITCRASQGISSYLHWYQQKPGKAPKLLIYGASTLQSGVPSRFSGSGSGTDFTLTISSLQPEDFATYYCQQQNGYPFTFGQGTKVEIKR
notes: as for B3
B8: TP-3H2 (Fab, V domains shown)
VH: QVQLVESGGGLVQPGGSLRLSCAASGFTFNSYYMSWVRQAPGKGLEWVSNISSSGSNTNYADSVKGRFTISRDNSKNTLYLQMNSLRAEDTAVYYCARVHYGFDFWGQGTLVTVSS
VL: DIELTQPPSVSVAPGQTARISCSGDKLGKYYAYWYQQKPGQAPVLVIYGDSKRPSGIPERFSGSNSGNTATLTISGTQAEDEADYYCSSAAFGSTVFGGGTKLTVLG
notes: as for B3
B9: TP-2B4 (Fab, V domains shown)
VH: QVQLVESGGGLVQPGGSLRLSCAASGFTFSNYSMTWVRQAPGKGLEWVSGISYNGSNTYYADSVKGRFTISRDNSKNTLYLQMNSLRAEDTAVYYCARIYYMNLLAGWGQGTLVTVSS
VL: DIELTQPPSVSVAPGQTARISCSGDALGTYYAYWYQQKPGQAPVLVIYGDMNRPSGIPERFSGSNSGNTATLTISGTQAEDEADYYCQSYDAGVKPAVFGGGTKLTVLG
notes: as for B3
B10: TP-4A7 (Fab, V domains shown)
VH: QVQLVESGGGLVQPGGSLRLSCAASGFTFRNYAMNWVRQAPGKGLEWVSVISGSSSYTYYADSVKGRFTISRDNSKNTLYLQMNSLRAEDTAVYYCARADLPYMVFDYWGQGTLVTVSS
VL: DIELTQPPSVSVAPGQTARISCSGDALGSKFAHWYQQKPGQAPVLVIYDDSERPSGIPERFSGSNSGNTATLTISGTQAEDEADYYCQAYDSGLLYVFGGGTKLTVLG
notes: as for B3
B11: TP-2A10 (Fab, V domains shown)
VH: QVQLVESGGGLVQPGGSLRLSCAASGFTFTSYSMNWVRQAPGKGLEWVSAISYTGSNTHYADSVKGRFTISRDNSKNTLYLQMNSLRAEDTAVYYCARAFLGYKESYFDIWGQGTLVTVSS
VL: DIELTQPPSVSVAPGQTARISCSGDKLGKKYVHWYQQKPGQAPVLVIYGDDKRPSGIPERFSGSNSGNTATLTISGTQAEDEADYYCQAWGSISRFVFGGGTKLTVLG
notes: as for B3
B12: TP-3G3 (Fab, V domains shown)
VH: QVQLVESGGGLVQPGGSLRLSCAASGFTFSSYSMSWVRQAPGKGLEWVSSISSSSSNTYYGDSVKGRFTISRDNSKNTLYLQMNSLRAEDTAVYYCARMHYKGMDIWGQGTLVTVSS
VL: DIQMTQSPSSLSASVGDRVTITCRASQNIHSHLNWYQQKPGKAPKLLIYDASSLQSGVPSRFSGSGSGTDFTLTISSLQPEDFAVYYCQQYYDYPLTFGQGTKVEIKR
notes: as for B3
B13: TP-2B8 (Fab, V domains shown)
VH: QVQLVQSGAEVKKPGASVKVSCKASGYTFTGNSMHWVRQAPGQGLEWMGTIFPYDGTTKYAQKFQGRVTMTRDTSISTAYMELSSLRSEDTAVYYCARGVHSYFDYWGQGTLVTVSS
VL: DIELTQPPSVSVAPGQTARISCSGDNLRGYYASWYQQKPGQAPVLVIYEDNNRPSGIPERFSGSNSGNTATLTISGTQAEDEADYYCQSWDSPYVHVFGGGTKLTVLG
notes: as for B3
B14: TP-3F2 (Fab, V domains shown)
VH: QVQLVESGGGLVQPGGSLRLSCAASGFTFSSYSMHWVRQAPGKGLEWVSGISYSSSFTYYADSVKGRFTISRDNSKNTLYLQMNSLRAEDTAVYYCARALGGGVDYWGQGTLVTVSS
VL: DIELTQPPSVSVAPGQTARISCSGDNLPSKSVYWYQQKPGQAPVLVIYGDNNRPSGIPERFSGSNSGNTATLTISGTQAEDEADYYCQSWTSRPMVVFGGGTKLTVLG
notes: as for B3

The target in one assay is T1, ヒトTFPI (human tissue factor pathway …). Nature of the assay: ELISA on coated human TFPI. Background: In an ELISA, binding on a coated surface is turned into a signal by an enzyme label.
In turn, B1 had an EC50 of 0.48 nM. As for B2, it took 0.22 nM to reach a half-maximal effect (EC50) and the “fold improvement of EC50 against 2G6-Fab” value was 2 fold.

The target is the same in another assay. The assay can be described thus: ELISA, Fab in bacterial lysate on coated human TFPI.
Regarding B3, the binding result was “binds”. As to B4, the binding result is listed as “binds”. As for B5, the binding result is “binds”. Consider B6, for which the binding result was “binds”. On to B7, for which the binding result is “binds”. On the same count and under the same terms, the same measure for B8: “binds”; for B9: “binds”; for B10: “binds”. Turning to B11, the binding result was “binds”.

For B12, the binding result was “binds”. Still for that read-out and setting: the same measure for B13: “binds”; for B14: “binds”.

The next assay concerns the target T2, マウスTFPI (mouse TFPI; R&D System). The assay can be described thus: ELISA on coated mouse TFPI.
B1 had a 50% effective concentration (EC50) of 5.18 nM. Take B2: the half-maximal effective concentration (EC50) turned out to be 0.51 nM and the “fold improvement of EC50 against 2G6-Fab” value was determined as 10 fold.
